experiment: soluble on expression in E. coli; label from the status in PepcDB or PDB records

Sequence | soluble on expression in E. coli
MAVNVYSTSVTSDNLSRHDMLAWINESLQLNLTKIEQLCSGAAYCQFMDMLFPGSIALKKVKFQAKLEHEYIQNFKILQAGFKRMGVDKIIPVDKLVKGKFQDNFEFVQWFKKFFDANYDGKDYDPVAARQGQETAVAPSLVAPALNKPKKPLTSSSAAPQRPISTQRTAAAPKAGPGVVRKNPGVGNGDDEAAELMQQVNVLKLTVEDLEKERDFYFGKLRNIELICQENEGENDPVLQRIVDILYATDEGFVIPDEGGPQEEQEEY | soluble
MAVSKNVTVIPARKHTRKSKDEEKPKLRVAAYCRVSTDSEEQATSYDTQIEHYTAYIQGHPDWMLAGIFADDGISGTNTKKREEFNRMIDECMAGNIDMIITKSISRFARNTLDCLKYIRQLKDKNIPVYFEKENINTMDSKGEVMLTIMASLAQQESQSLSQNVKLGLQYRYQQGEIQVNCARFLGYTKDENKRLVVVPEEAEIVKRIYREYLEGASMLKIARGLEADGILNGAGNERWHTSNINNILRNEKYIGDALLQKTYTVDFLTKKRVKNNGIVPQYYVENSHEAIIPREVFMQVQEELIRRRIVHTSPNGKTRTFSSNHVFAQIIICGKCGEVFRRVHWNNRGKKSIVWRCVSRLENTGLFCDARTVLESTIEQVLVTAINQTLCDKDSFLTTLRDNIATIINRESDKALADIDKRLEELQTELLKLATSNADYEKVGDEIHSLRDQKQKLQVENANRDELKKQIADMSTFLKKQSTALAEYDKQLVRRLIDKVTVFEDKFTVEFKSGVTVDVDE | soluble
MAVYRTVQVNFWQDDFVLDLTPEERYFYVYLLTCSKTTQCGIFPFPKRLAEMETGYNRETVDKLVQRFVDYGKILYDAETRELFVLNWLRYNPVTNTNVEKCVLRELKGVKNKEFVHMFLQKCVEEELNVPMLLAHFGMPSDLAVDDVEPVCEEAEEEEVIEEETGSRVFSFYEQHFGSLSPHTVEELSAWMEDLSEELVLKALQIAFENNKRTVAYVKGILRGWHGKGFTKVSEVEADTASFRKKDLSVSTGETEEFLARCEEWEKNAPSEEELQRFLAERGWRP | soluble
MAWTFDEKSPIYLQIAYRVKLKIASKELSMGQQLLPVREFAQEAGVNPNTVQRAFQELEKEGLVYSARTSGRFVTEDEKLIDQKRHEIAQTLMKNFVTEMTAIGFSSPEIKTIITDYIEQTGKDL | not soluble
MAWWKAWIEQEGVTVASSSHFNPDPDAETLYKAMKGIGTNEQAIIDVLTKRSNTQRQQIAKSFKAQFGKDLTETLKSELSGKFERLIVALMYPPYRYEAKELHDAMKGLGTKEGVIIEILASRTKNQLREIMKAYEEDYGSSLEEDIQADTSGYLERILVCLLQGSRDDVSSFVDPALALQDAQDLYAAGEKIRGTDEMKFITILCTRSATHLLRVFEEYEKIANKSIEDSIKSETHGSLEEAMLTVVKCTQNLHSYFAERLYYAMKGAGTRDGTLIRNIVSRSEIDLNLIKCHFKKMYGKTLSSMIMEDTSGDYKNALLSLVGSDP | soluble
MAYDLAVPGPIMQEVAQYLASLSGKAVVINIFAGHADRSLSQTQLAELLDKLLARHPGSAVILLDHRREIRIPLPPEVVINPFNTLHHAMALIAQAELIISPDTSVVHMAAAWNKPLIAVYKDVLLNNRLWAPGYDNARQIIVKCGKVHQHRGLVDRIIAALPETLLEHHHHHH | not soluble
MAYNKEEKIKSLNRMQYEVTQNNGTEPPFQNEYWDHKEEGLYVDIVSGKPLFTSKDKFDSQCGWPSFTKPIEEEVEEKLDTSHGMIRTEVRSRTADSHLGHVFNDGPGPNGLRYCINSAALRFVPKHKLKEEGYESYLHLFNK | not soluble
MCICPNRQTAASVGQRYGEPVVLRVDAGRMHRNGLPFFKADNGVWLTAQVPAAFLTRPRLEHHHHHH | not soluble
MCILFIAIEQHPKYPLIICANRDEFHQRPTQAMHVWQESNILAGKDLQAGGTWLGLSSTGKFAALTNFRKLPLSEAPKKSRGDLVLQALADTKINMTAELAQQASQYHGFNLIYGSLKQLYCYDSVNNQSHQLSDGVHSICNGALDDIWPKMARGEKLLSETIRSQKNLSIEALFDLMTNDKQALPHLLPETGLDEEWEQLLSAIFIKSPTYGTRTTTIITQDVEGNVETYDRSYAPSGECITKQQFNLATVFDLEHHHHHH | not soluble
MCMNKKRIYKFRRFLARKLDFPSDAVMYTPRINISVTGDEEITIENYRGIVEFSDENIKVNTEVGTISIDGKNFEIVFISGSTIILGGKFKTIAYGGDKNEALEHHHHHH | soluble
MCMNTQSPPSPHDPHGAAALPFRLWTAEERRASLDTALREWRDGEDVWVYGYGSLIWRPDFDFVERRLATLHGHHRALLWSRVNRGTPECPGLVFGLDRGGSCRGVVYRLAGRQVPDYFPALWDREMSTGAYLPRWLRCATEHGPVNALVFIMNRANPAYIRALPEPELLAIVRRASGRYGPCTEYVVQTAQALRQAGIRDARLEQIARQLEAEVHPLGVLEHHHHHH | soluble
MCMPRYTQPKKTWFYPVNFKIKAVELSLRNDMLSKDVAQALDIHPLMLSRWRKEYREGKFKKNQHYQSNSELMSKIPTKKELNKIKQLQKENDRLKMENDLLKKWQRYLAEVHQSDLDSSKNTKKPLEHHHHHH | soluble
MCMQAQDVTIRDQEIKLGQFIKLANLVETGGAAKEVIAEGRVTVNGAVDTRRGKTLRDGDVVCIGTACARVVAGAADDDDYFDEKTANDDFDPEVWRNM | not soluble
MCPILWTRNGSHCYYFSMEKKDWNSSLKFCADKGSHLLTFPDNQGVKLFGEYLGQDFYWIGLRNIDGWRWEGGPALSLRILTNSLIQRCGAIHRNGLQASSCEVALQWICKKVLY | soluble
MCPKCGTECDKLFDSVCRDCFFETFKLIDLPLVLHVKICSSCGAYFHRSRWENIGNLEEVVLKAVENALFIHDEAGDVELYLEPKEITPYIYMVRAEVDAIVRGEPVHAEAATEVRVQRIACDMCSRESGGYFEAIIQIRAAGRFPTEEEKRRCSAIAREAMESMKKKGDRLAFISDYQEQKEGIDLYMGSMNASRQVCRMIISELGGSFAESPTLVGMKDGKNLYRITFAMRLPLEHHHHHH | not soluble
MCSALVVAAPHSGSGKTTVTAAIARYHRVQGRKVTVFKVGPDFIDPMILRQASGELVYQLDLWLVGEQGCRALLHRAAMDSDLILIEGVMGLFDGTPSSADLAKYFNIPVLGVIDAKAMAQTFAAVTFGLAKFCEDLPFSGVIANRVNTERHAELLSVSLPKAFRFYGRIPKDDTITLPERHLGLVQAQELSDIDVQLDKAASHIANTGLTELPSQVEFFAQEDDNQENIIEGALAGTRIIIIRDSAFSFIYAANIAFLTQTGAELIYCSAMADVHLPDGDILYIPGGYPELYAEQLMNNVTFLSDIRAFSASNKPIVAECGGMLYLLEQLTDMEGQQFSMLGLMPGKATMQKKLAAIGSQWVPLPSFADAAEDSADNIMRGHSFHYSCAEIELEPSSQTTHHPSERAGEYVYQHNNILASYMHWYFPSNPSLTLRIFDKARYLLEHHHHHH | soluble
MCSSPTTLFLLFALVSTSYALLGVGRTQSVAVSGRVICNGQPASGVKLKLYEKESTFDVLLEEATSDANGQFRLSGSKTEISTIDPKLNIYHKCNYNGLCYKKIGITIPDNYVSSGKTPSKTYDIGTLNLANQYTGQTTDCIN | not soluble
MCTGLALETKDGLHLFGRNMDIEYSFNQSIIFIPRNFKCVNKSNKKELTTKYAVLGMGTIFDDYPTFADGMNEKGLGCAGLNFPVYVSYSKEDIEGKTNIPVYNFLLWVLANFSSVEEVKEALKNANIVDIPISENIPNTTLHWMISDITGKSIVVEQTKEKLNVFDNNIGVLTNSPTFDWHVANLNQYVGLRYNQVPEFKLGDQSLTALGQGTGLVGLPGDFTPASRFIRVAFLRDAMIKNDKDSIDLIEFFHILNNVAMVRGSTRTVEEKSDLTQYTSCMCLEKGIYYYNTYENNQINAIDMNKENLDGNEIKTYKYNKTLSINHVN | soluble
MCTTCGCAEGNLYIEGDEHNPHSAFRSAPFAPAARPALNITGIKTPDFAPSQTAEGDLHYGHGEAGTHAPGMSQRRMLEVEIDVLDKNNRLAERNRARFAARQQLVLNLVSSPGSGKTTLLTETLMKLKDRVPCAVIEGDQQTVNDAARIRATGTPAIQVNTGKGCHLDAQMIADAAPRLPLDDHGILFIENVGNLVCPASFDLGEKHKVAVLSVTEGEDKPLKYPHMFAAASLMLLNKVDLLPYLNFDVEKCIASAREVNPEIEIILISATSGEGMDQWLAWLEAQRCA | not soluble
MDAHQIISFIQNSKKATPVKVYLKGDLEKIDFPSDVKTFITGNAGTIFGEWAVVEPLLEANKANIEDYVIENDRRNSAIPLLDMKNI | not soluble
MDAKETSATDLKRPREEDDNGGAATMETENGDQKKEPACFSTVIPGWFSEMSPMWPGEAHSLKVEKVLFQGKSDYQDVIVFQSATYGKVLVLDGVIQLTERDECAYQEMITHLPLCSIPNPKKVLVIGGGDGGVLREVARHASIEQIDMCEIDKMVVDVSKQFFPDVAIGYEDPRVNLVIGDGVAFLKNAAEGSYDAVIVDSSDPIGPAKELFEKPFFQSVARALRPGGVVCTQAESLWLHMDIIEDIVSNCREIFKGSVNYAWTSVPTYPSGVIGFMLCSTEGPDVDFKHPLNPIDESSSKSNGPLKFYNAEIHSAAFCLPSFAKKVIESKAN | soluble
MDALIAQLQRQFRDYTISLYQQGFLDDQFTELKKLQDDGSPDFVSEVLSLFFEDCVKLISNMARALDTTGTVDFSQVGASVHQLKGSSSSVGAKRVKTLCVSFKECCEAKNYEGCVRCLQQVDIEYKALKTKLQDMFNLEKQIIQAGGIVPQVDIN | soluble
MDALKLLTNRRSSKKLKHPAPDAAELEQIFQAATQVPDHGNMRPFRFTVIQGEVGLQRFRDVLKQTVAELNFGDDAMKKAEKVGNMAPMVIGVTFAPNRDVPKPKPEWEQMLTAGCAAYALQLAATAQGFDNVWITGMWVNSPLLREAFGCADKDKIIGLMMVGTPTEEVHKPKNTDLEAFVSHW | not soluble
MDCHKLRRLLKKEEGPKLDFKAEYDLSTESGKKELTKDVIAIANSRGGRGYIILGIEDKTKRVLGIEPKRYTEEQIQQIIYNRCDPPVPISVDFVGLDGKTVGVITVYRSSHKPHQMIQNGAFYIRRGSTTDIARRSEIANLFQENGLMTYETVILKNVGMEELDFGLIKDYFKTLNVFSDNPSELILEALGIIGQKSDTEEYHPTIGGLLLFGKNPSLYLPHVYVKVVYNGEARLFFGNILKMLDDVSDYMRSIIKVEGYPFNALEEVIANALVHRDYLDVSKGIVITVTDKNIEISNPGALIAGNSVYSFSREINPDRRNPWLYQRLLTLDPKKRFMKSGVGLKRVKKSFTGIGPVKFINIGSQNLFKVLLPIGKKQESTSDTSGLF | soluble
MDDHAFAAPAPAAPTAPALPMAVLAELTHRCPLQCPYCSNPVELEAASRELSTEDWQRVIGELAALGVLQIHFSGGEPLVRRDLVALVAHADRAGLYTNLITSAVMFTRAKVAELAEAGLAHVQVSLQGASAPVAERIGGFRGGHAKKIEAAAWVRAEGMALTLNAVMHRQNLDELPRIVEMAVEMGAQRLEVAHVQYYGWALKNRAALMPTLAQLDEATRIVEEAQARLSGVLAIDYVIPDYYAVRPKTCMGGWGRQFFNISPSGKVLPCHAAETITGLRFDSVREAPLAEIWQRSEALNLYRGTGWMQEPCRSCIHAEEDFGGCRCQAFALAGDAAATDPACAKSPLHAQLFSLAGAEAEAGADRFLYRNFSGGTPEG | not soluble
